{
  "source": "paper PMC5587573",
  "target": "T1, Escherichia coli trigger factor (Escherichia coli), P0A850",
  "T1 chain": "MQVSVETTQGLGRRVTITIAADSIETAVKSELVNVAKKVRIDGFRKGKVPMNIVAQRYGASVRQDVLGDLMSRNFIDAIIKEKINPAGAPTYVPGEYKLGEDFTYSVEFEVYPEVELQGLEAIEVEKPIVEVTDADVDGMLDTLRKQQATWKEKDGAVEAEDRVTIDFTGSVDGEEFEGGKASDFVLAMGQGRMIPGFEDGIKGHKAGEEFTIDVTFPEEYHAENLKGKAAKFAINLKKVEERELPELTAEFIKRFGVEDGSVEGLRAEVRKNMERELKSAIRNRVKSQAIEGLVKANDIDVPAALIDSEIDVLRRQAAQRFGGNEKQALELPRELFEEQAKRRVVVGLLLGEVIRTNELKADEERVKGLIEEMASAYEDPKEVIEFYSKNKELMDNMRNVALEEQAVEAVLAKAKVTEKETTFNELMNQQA",
  "assay": "SAXS (static); five to eight protein concentrations; 20 mM Tris pH 7.5, 150 mM KCl; 20 °C; BM29 beamline, ESRF; self-association",
  "conditions": "remark: other sources report otherwise",
  "data": [
    {"binder": "Escherichia coli trigger factor, P0A850 1-432 (natural protein) MQVSVETTQGLGRRVTITIAADSIETAVKSELVNVAKKVRIDGFRKGKVPMNIVAQRYGASVRQDVLGDLMSRNFIDAIIKEKINPAGAPTYVPGEYKLGEDFTYSVEFEVYPEVELQGLEAIEVEKPIVEVTDADVDGMLDTLRKQQATWKEKDGAVEAEDRVTIDFTGSVDGEEFEGGKASDFVLAMGQGRMIPGFEDGIKGHKAGEEFTIDVTFPEEYHAENLKGKAAKFAINLKKVEERELPELTAEFIKRFGVEDGSVEGLRAEVRKNMERELKSAIRNRVKSQAIEGLVKANDIDVPAALIDSEIDVLRRQAAQRFGGNEKQALELPRELFEEQAKRRVVVGLLLGEVIRTNELKADEERVKGLIEEMASAYEDPKEVIEFYSKNKELMDNMRNVALEEQAVEAVLAKAKVTEKETTFNELMNQQA", "values": [
      {"measurement": "stoichiometry N", "result": 2}
    ]}
  ]
}
